Assays:
[1] = target: TF(1-4)-ZIF (TFIIIA F1-4 fused to Zif268) (artificial); assay: EMSA; no preference for gap composition (data not shown); details: label: 32P
3x2F ZGLS = 3x2F ZGLS (artificial); assay: EMSA; apparent Kd; details: label: 32P
Protocol: (§1) DNA binding reactions contain the appropriate zinc-finger peptide, binding site and 1 μg competitor DNA (poly dI-dC) in a total volume of 10 μl, which contains: 20 mM Bis-tris propane (pH 7.0), 100 mM NaCl, 5 mM MgCl₂, 50 μM ZnCl₂, 5 mM DTT, 0.1 mg/ml BSA, 0.1% Nonidet P40. Incubations are performed at room temperature for 1 hour.
(§2) Dissociation constants are determined in parallel to the calculation of active peptide concentration. Serial 3, 4 or 5-fold dilutions of crude peptide are made and incubated with radiolabelled binding site (0.1 pM-500 pM depending on the peptide), as above. Samples are run on 7% native polyacrylamide gels and the radioactive signals quantitated by PhosphorImager analysis. The data is then analysed according to linear transformation of the binding equation and plotted in CA-Cricket Graph III (Computer Associates Inc. NY) to generate the apparent dissociation constants. The Kd values reported are the average of at least two separate studies.
(§3) First the 3x2F ZGS and ZGL peptides are titrated against 12/34/56 (three 6 bp subsites separated by 1 bp, which is represented by a single ‘/’ in the binding site name) and 12//34//56 (three 6 bp subsites separated by 2 bps) binding sites. […] Next, the 3x2F ZGSL and 3x2F ZGLS peptides are targeted against the three non-contiguous sequences: 1234/56, 12/3456 and 12//34//56. […] 3x2F ZGLS show a similar trend in binding affinities.

3x2F ZGS [2] = target: 3x2F ZGS (artificial); assay: EMSA; apparent Kd; details: label: 32P
Protocol: as §1, §2, §3

3x2F ZGSL = 3x2F ZGSL (artificial); assay: EMSA; apparent Kd; details: label: 32P
Protocol: as §1, §2, §3

[3] = target: TF(1-4)-ZIF (TFIIIA F1-4 fused to Zif268) (artificial); assay: EMSA; apparent Kd; table prints gap as X8; details: label: 32P
Protocol: as §1, §2
(§4) The TF(1-4)-ZIF and TF(1-3)-flex-ZIF peptides are tested against the non-contiguous TF-5,6,7,8,9-Z sites. In these first experiments the DNA composition of the non-bound region is based on the endogenous TFIIIA target site. […] The target sites with 5, 6 or 9 bp gaps are bound at least 5-fold weaker (FIG. 27A). […]

[4] = target: ZIF-ZnF-GAC (serine-finger linker) (artificial); assay: EMSA; details: label: 32P
Protocol: as §1
For this purpose a ‘neutral’ finger is created by replacing the DNA binding residues (those at positions −1, 2, 3, and 6) of wild type ZIF268 finger 2, with serine residues. Serine can act as either an H-bond acceptor or donator, and can therefore interact with all four bases in DNA. This new finger, denoted “ZnF” and flanked by two GERP linkers, is used to join the three-finger peptides of ZIF and the GAC-clone, creating the seven-finger array ZIF-ZnF-GAC (FIG. 17). This peptide is targeted against non-contiguous sites comprising the 9 bp ZIF and GAC-clone recognition sequences separated by 2, 3, 4 or 5 bps of DNA, and also sites bsA and bsC for comparison (FIG. 21).

GAC-F4-ZIF [5] = target: GAC-F4-ZIF (artificial); assay: EMSA; 7 bp gap spanned without significant loss; details: label: 32P
[6] = target: TF(1-4)-ZIF (TFIIIA F1-4 fused to Zif268) (artificial); assay: EMSA; apparent Kd; table prints gap as X5; details: label: 32P
Protocol: as §1, §2

3x2F ZGS [7] = target: 3x2F ZGS (artificial); assay: EMSA; apparent Kd; details: label: 32P; remark: listed apart in the source
Protocol: as §1, §2

2x3F ZIF-GAC = 2x3F ZIF-GAC (artificial); assay: EMSA; apparent Kd; details: label: 32P
Protocol: as §1, §2

[8] = target: TF(1-4)-ZIF (TFIIIA F1-4 fused to Zif268) (artificial); assay: EMSA; apparent Kd; table prints gap as X6; details: label: 32P
Protocol: as §1, §2, §4

GAC-F4-ZIF [9] = target: GAC-F4-ZIF (artificial); assay: EMSA; 10 bp gap spanned without significant loss; details: label: 32P
3x2F ZGL = 3x2F ZGL (artificial); assay: EMSA; apparent Kd; details: label: 32P
Protocol: as §1, §2, §3

GAC-F4-ZIF [10] = target: GAC-F4-ZIF (artificial); assay: EMSA; optimal 9 bp gap; details: label: 32P
Protocol: as §1
(§5) To determine whether TFIIIA F4 would still function as a linker when taken out of the context of neighbouring TFIIIA fingers, the GAC-F4-ZIF construct is made (FIGS. 14 and 16). This construct can be thought of simply as two ZIF-based DNA binding domains joined by a structured linker (in this case TFIIIA F4). […] In this case, however, the optimal DNA span is found to be 8 or 9 bps, although 7-11 bp stretches could be spanned without a significant loss in binding affinity.

[11] = target: Zif268 (wild-type ZIF, three-finger) (UniProt P08046 P08046:333-421); assay: EMSA; Bis-tris propane pH 7.0, 100 mM NaCl, 5 mM MgCl2, 50 uM ZnCl2, room temperature
GAC-F4-ZIF [12] = target: GAC-F4-ZIF (artificial); assay: EMSA; 11 bp gap spanned without significant loss; details: label: 32P
[13] = target: TF(1-4)-ZIF (TFIIIA F1-4 fused to Zif268) (artificial); assay: EMSA; apparent Kd; table prints gap as X7; details: label: 32P
Protocol: as §1, §2, §4

[14] = target: TF(1-4)-ZIF (TFIIIA F1-4 fused to Zif268) (artificial); assay: EMSA; apparent Kd; table prints gap as X9; details: label: 32P
Protocol: as §1, §2, §4

3x2F ZGXL = 3x2F ZGXL (artificial); assay: EMSA; details: label: 32P
Protocol: as §1
3x2F ZGXL binds the non-contiguous site bsD approximately as tightly as the 3x2F ZGS peptide binds the contiguous 18 bp site, bsC. However, the 3x2F ZGXL peptide binds bsE (containing 2 base pair gaps between target subsites) approximately 500-fold less tightly than it does bsC and bsD, as shown in FIG. 11. This is presumably because it can only bind bsE through 2 fingers.

[15] = target: ZIF-ZnF-GAC (serine-finger linker) (artificial); assay: EMSA; apparent Kd; details: label: 32P
Protocol: as §1, §2
A further set of binding studies is then carried out on the construct containing the non-specific zinc finger linker, ZIF-ZnF-GAC. Although this construct is expected to target (primarily) non-contiguous sequences containing three or four base pairs of non-bound DNA, it is tested against all of the binding sites from ZM to Z10M. […]

GAC-F4-ZIF [16] = target: GAC-F4-ZIF (artificial); assay: EMSA; optimal 8 bp gap; details: label: 32P
Protocol: as §1, §5

Chain of 3x2F ZGSL (artificial) (chain, as listed by the source): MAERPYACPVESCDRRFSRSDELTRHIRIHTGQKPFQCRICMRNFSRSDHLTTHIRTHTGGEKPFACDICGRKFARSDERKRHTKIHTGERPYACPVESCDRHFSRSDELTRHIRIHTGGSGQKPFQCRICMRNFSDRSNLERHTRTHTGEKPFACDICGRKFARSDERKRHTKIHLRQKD
Chain of 2x3F ZIF-GAC (artificial) (chain, as listed by the source): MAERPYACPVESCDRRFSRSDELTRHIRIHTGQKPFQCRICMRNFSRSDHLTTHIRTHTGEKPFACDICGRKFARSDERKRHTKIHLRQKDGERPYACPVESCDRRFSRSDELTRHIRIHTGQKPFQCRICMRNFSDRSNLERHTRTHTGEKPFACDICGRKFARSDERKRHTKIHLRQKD
Chain of 3x2F ZGS (artificial) (chain, as listed by the source): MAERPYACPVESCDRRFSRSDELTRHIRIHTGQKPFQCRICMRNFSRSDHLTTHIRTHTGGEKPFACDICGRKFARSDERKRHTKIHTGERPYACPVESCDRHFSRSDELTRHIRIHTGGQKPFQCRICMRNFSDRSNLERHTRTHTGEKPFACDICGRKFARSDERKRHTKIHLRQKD
Chain of GAC-F4-ZIF (artificial) (chain, as listed by the source): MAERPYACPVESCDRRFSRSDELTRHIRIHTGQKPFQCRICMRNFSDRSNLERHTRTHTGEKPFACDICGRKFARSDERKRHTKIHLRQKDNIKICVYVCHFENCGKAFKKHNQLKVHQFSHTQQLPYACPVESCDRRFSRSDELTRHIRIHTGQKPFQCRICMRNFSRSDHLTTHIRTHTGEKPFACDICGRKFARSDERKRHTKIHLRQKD
Chain of 3x2F ZGLS (artificial) (chain, as listed by the source): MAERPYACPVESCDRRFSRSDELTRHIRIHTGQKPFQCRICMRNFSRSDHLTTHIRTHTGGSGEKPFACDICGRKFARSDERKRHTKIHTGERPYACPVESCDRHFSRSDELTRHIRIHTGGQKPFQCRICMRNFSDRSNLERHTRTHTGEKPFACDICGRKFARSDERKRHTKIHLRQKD
Chain of TF(1-4)-ZIF (TFIIIA F1-4 fused to Zif268) (artificial) (chain, as listed by the source): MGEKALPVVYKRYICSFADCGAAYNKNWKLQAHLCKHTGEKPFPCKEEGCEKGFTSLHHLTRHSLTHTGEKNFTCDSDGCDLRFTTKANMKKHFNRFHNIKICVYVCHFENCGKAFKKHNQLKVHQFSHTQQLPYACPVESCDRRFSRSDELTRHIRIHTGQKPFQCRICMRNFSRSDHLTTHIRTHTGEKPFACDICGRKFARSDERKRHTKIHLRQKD
Chain of ZIF-ZnF-GAC (serine-finger linker) (artificial) (chain, as listed by the source): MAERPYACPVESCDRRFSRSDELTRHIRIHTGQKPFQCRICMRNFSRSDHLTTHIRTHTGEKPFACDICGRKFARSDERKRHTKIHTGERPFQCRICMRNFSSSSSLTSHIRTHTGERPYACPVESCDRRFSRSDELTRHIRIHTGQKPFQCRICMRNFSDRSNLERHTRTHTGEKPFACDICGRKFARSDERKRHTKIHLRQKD
Chain of 3x2F ZGL (artificial) (chain, as listed by the source): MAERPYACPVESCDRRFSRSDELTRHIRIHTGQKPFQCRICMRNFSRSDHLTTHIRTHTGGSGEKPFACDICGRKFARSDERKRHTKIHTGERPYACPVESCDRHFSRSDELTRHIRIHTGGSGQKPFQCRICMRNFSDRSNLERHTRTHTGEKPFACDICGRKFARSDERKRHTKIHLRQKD
Chain of 3x2F ZGXL (artificial) (chain, as listed by the source): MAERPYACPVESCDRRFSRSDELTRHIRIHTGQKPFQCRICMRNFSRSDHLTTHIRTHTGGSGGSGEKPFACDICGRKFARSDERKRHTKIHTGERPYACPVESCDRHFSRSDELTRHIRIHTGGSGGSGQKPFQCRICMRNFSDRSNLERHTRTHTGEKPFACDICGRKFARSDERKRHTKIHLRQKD

B1: bsH1 (dsDNA)
DNA 1: GCGTGGGCGAAAAAAGGATGGGAGAC
DNA 2: GTCTCCCATCCTTTTTTCGCCCACGC
[1]
  binding result: binds

B2: bsF (1234/56 in Table 5) (dsDNA)
DNA 1: GCGGACTGCGGCGTGGGCG
DNA 2: CGCCCACGCCGCAGTCCGC
3x2F ZGLS
  Kd: 0.089 nM
3x2F ZGS [2]
  Kd: 0.054 nM
3x2F ZGSL
  Kd: 0.003 nM

B3: TF8Z (bsD1) (dsDNA)
DNA 1: GCGTGGGCGTAGTACCTGGATGGGAGAC
DNA 2: GTCTCCCATCCAGGTACTACGCCCACGC
[3]
  Kd: 0.003 nM

B4: Z5G (dsDNA)
DNA 1: GCGGACGCGCTAGTGCGTGGGCG
DNA 2: CGCCCACGCACTAGCGCGTCCGC
[4]
  binding signal: ≥ 500 fold stronger than bsA

B5: bsB2 (dsDNA)
DNA 1: GCGTGGGCGGTACCTGGCGGACGCG
DNA 2: CGCGTCCGCCAGGTACCGCCCACGC
GAC-F4-ZIF [5]
  binding result: binds

B6: Z3G (dsDNA)
DNA 1: GCGGACGCGAGTGCGTGGGCG
DNA 2: CGCCCACGCACTCGCGTCCGC
[4]
  binding signal: ≥ 500 fold stronger than bsA

B7: TF5Z (bsA1) (dsDNA)
DNA 1: GCGTGGGCGTACCTGGATGGGAGAC
DNA 2: GTCTCCCATCCAGGTACGCCCACGC
[6]
  Kd: 0.021 nM

B8: bsG1 (dsDNA)
DNA 1: GCGTGGGCGCTTGACGGATGGGAGAC
DNA 2: GTCTCCCATCCGTCAAGCGCCCACGC
[1]
  binding result: binds

B9: bs3 (123//56) (dsDNA)
DNA 1: GCGGACTCGCGTGGGCG
DNA 2: CGCCCACGCGAGTCCGC
3x2F ZGS [7]
  Kd: 0.27 nM
2x3F ZIF-GAC
  Kd: 0.014 nM

B10: TF6Z (bsB1) (dsDNA)
DNA 1: GCGTGGGCGGTACCTGGATGGGAGAC
DNA 2: GTCTCCCATCCAGGTACCGCCCACGC
[8]
  Kd: 0.017 nM

B11: bs1 (12356) (dsDNA)
DNA 1: GCGGACGCGTGGGCG
DNA 2: CGCCCACGCGTCCGC
3x2F ZGS [7]
  Kd: 22 nM
2x3F ZIF-GAC
  Kd: 0.36 nM

B12: bsE2 (dsDNA)
DNA 1: GCGTGGGCGTTAGTACCTGGCGGACGCG
DNA 2: CGCGTCCGCCAGGTACTAACGCCCACGC
GAC-F4-ZIF [9]
  binding result: binds

B13: bsE (12//34//56) (dsDNA)
DNA 1: GCGGAGTCGCGGCGTCTGGGCG
DNA 2: CGCCCAGACGCCGCGACTCCGC
3x2F ZGLS
  Kd: 12 nM
3x2F ZGSL
  Kd: 12 nM
3x2F ZGL
  Kd: 11 nM

B14: Z2G (dsDNA)
DNA 1: GCGGACGCGGTGCGTGGGCG
DNA 2: CGCCCACGCACCGCGTCCGC
[4]
  binding signal: ≥ 500 fold stronger than bsA

B15: bsD2 (dsDNA)
DNA 1: GCGTGGGCGTAGTACCTGGCGGACGCG
DNA 2: CGCGTCCGCCAGGTACTACGCCCACGC
GAC-F4-ZIF [10]
  binding signal: ≥ 125 fold stronger than bsA

B16: bs2 (123/56) (dsDNA)
DNA 1: GCGGACTGCGTGGGCG
DNA 2: CGCCCACGCAGTCCGC
3x2F ZGS [7]
  Kd: 0.63 nM
2x3F ZIF-GAC
  Kd: 0.014 nM

B17: bsA (ZIF site) (dsDNA)
DNA 1: GCGTGGGCG
DNA 2: CGCCCACGC
[11]
  Kd: 0.45 nM

B18: bsF2 (dsDNA)
DNA 1: GCGTGGGCGGTTAGTACCTGGCGGACGCG
DNA 2: CGCGTCCGCCAGGTACTAACCGCCCACGC
GAC-F4-ZIF [12]
  binding result: binds

B19: TF7Z (bsC1) (dsDNA)
DNA 1: GCGTGGGCGAGTACCTGGATGGGAGAC
DNA 2: GTCTCCCATCCAGGTACTCGCCCACGC
[13]
  Kd: 0.003 nM

B20: bs4 (123///56) (dsDNA)
DNA 1: GCGGACATCGCGTGGGCG
DNA 2: CGCCCACGCGATGTCCGC
3x2F ZGS [7]
  Kd: 0.89 nM
2x3F ZIF-GAC
  Kd: 0.015 nM

B21: TF9Z (bsE1) (dsDNA)
DNA 1: GCGTGGGCGTTAGTACCTGGATGGGAGAC
DNA 2: GTCTCCCATCCAGGTACTAACGCCCACGC
[14]
  Kd: 0.015 nM

B22: bsD (12/34/56) (dsDNA)
DNA 1: GCGGACTGCGGCGTTGGGCG
DNA 2: CGCCCAACGCCGCAGTCCGC
3x2F ZGLS
  Kd: 0.12 nM
3x2F ZGS [2]
  Kd: 18 nM
3x2F ZGSL
  Kd: 0.11 nM
3x2F ZGL
  Kd: 0.005 nM

B23: Z4G (dsDNA)
DNA 1: GCGGACGCGTAGTGCGTGGGCG
DNA 2: CGCCCACGCACTACGCGTCCGC
[4]
  binding signal: ≥ 500 fold stronger than bsA

B24: bsG (12/3456 in Table 5) (dsDNA)
DNA 1: GCGGACGCGGCGTTGGGCG
DNA 2: CGCCCAACGCCGCGTCCGC
3x2F ZGLS
  Kd: 0.005 nM
3x2F ZGS [2]
  Kd: 0.077 nM
3x2F ZGSL
  Kd: 0.073 nM

B25: bsC (123456, ZM) (dsDNA)
DNA 1: GCGGACGCGGCGTGGGCG
DNA 2: CGCCCACGCCGCGTCCGC
2x3F ZIF-GAC
  Kd: 0.0014 nM
3x2F ZGXL
  binding result: binds
[15]
  Kd: 0.007 nM

B26: bsC2 (dsDNA)
DNA 1: GCGTGGGCGAGTACCTGGCGGACGCG
DNA 2: CGCGTCCGCCAGGTACTCGCCCACGC
GAC-F4-ZIF [16]
  binding signal: ≥ 125 fold stronger than bsA

Source: US20030119023, “Nucleic acid binding polypeptides characterized by flexible linkers connected nucleic acid binding modules” (published 2003)
